Like-named read-outs stand apart in the source and are kept apart here.
B1: taxadiene 5α-hydroxylase (T5αH), soluble portion, 47 N-terminal amino acids removed (enzyme)
chain: SSLKLPPGKLGIPFIGESFIFLRALRSNSLEQFFDERVKKFGLVFKTSLIGHPTVVLCGPAGNRLILSNEEKLVQMSWPAQFMKLMGENSVATRRGEDHIVMRSALAGFFGPGALQSYIGKMNTEIQSHINEKWKGKDEVNVLPLVRELVFNISAILFFNIYDKQEQDRLHKLLETILVGSFALPIDLPGFGFHRALQGRAKLNKIMLSLIKKRKEDLQSGSATATQDLLSVLLTFRDDKGTPLTNDEILDNFSSLLHASYDTTTSPMALIFKLLSSNPECYQKVVQEQLEILSNKEEGEEITWKDLKAMKYTWQVAQETLRMFPPVFGTFRKAITDIQYDGYTIPKGWKLLWTTYSTHPKDLYFNEPEKFMPSRFDQEGKHVAPYTFLPFGGGQRSCVGWEFSKMEILLFVHHFVKTFSSYTPVDPDEKISGDPLPPLPSKGFSIKLFPRP
modifications: RED-tris-NTA dye on the His tag (NanoTemper His-Tag labelling kit)
B2: taxadiene synthase 2 (TDS2), soluble portion, 60 N-terminal amino acids removed (enzyme)
chain: SGSPTKLATENANAVAESNLIPRLSANYHGDLWHHGVIQTLQTPYQESSSYQERAEELIVKIKDMFKAVEEGAISPSAYDTAWVARVPDGSEKPRFPQALNWLLHNQLQDGSWGLESHFMLSDRLLSTLNSVISLLVWKTGQQQVEQGTLFITENLKLLEGEDELPPDFEIIFPALLQKAKALGMSLPDHDLPFIKSLSVAREARLASYTDNNIPASMLNALEGLEEVIDWDKIMRFQMPCLYSIDLLERLSLVDNIEHLGIGRHFKQEIKVALDYVYRYWSERGIGLGRDSLIPDLNTTALGLRTLRAHGYNVSSEVLNNFKDENGRFFSSLGQTHVELRSMVNLLRASDLAFPDEPLMDDAKIFAEAYLRDALATRISTNTKLFKEIDYAVEYPWHMSIPRLEARSYIDVYDDDYTWQNKTLYRMSNLSNAYCLELAKLDFNIVQSLHQEELKLLTRWWKESGMADINFTRHRVAEVYFSSATFEPEYSSTRIAFTKIGCLQVLFDDMADIFATLDELRDFTEGVKRWDTSLIHKLPDCMQTCFRVWFNLMEEVNNDVSNVQGRDMLNHIRKPWELYFNCYVQEREWLDAGYIPTLEEYLKTYSISVGLGPCTLQPILLMGDIVKDDVVEKVHYPSNLFELVSLSWRLTNDTKTYQAEKARGQQASGIACYMKDNPGSTEEDAIKYICGVVDRALKEACFEYFKPADDVPMSCKSFIFNLRLCVQIFYKFIDGYGIANEEIKDYIRKVYIEPIQV
modifications: RED-tris-NTA dye on the His tag (NanoTemper His-Tag labelling kit)

How the values were obtained:
Experiment in all cases: MST
[1] = target: T1, FoTO1(ΔC), FoTO1 with the C-terminal α-helix deleted, fused to N-terminal mTurquoise2 (Taxus media)
[2] = target: T2, FoTO1 (facilitator of taxane oxidation), fused to N-terminal mTurquoise2 (Taxus media)
[3] = target: T1, FoTO1(ΔC), FoTO1 with the C-terminal …; remark: listed apart in the source
[4] = target: T2, FoTO1 (facilitator of taxane …); remark: listed apart in the source

| Binder | Kd [1] | Kd [2] | Kd [3] | Kd [4] |
| --- | --- | --- | --- | --- |
| B1 | > 10000 nM | 470 nM | – | – |
| B2 | – | – | > 10000 nM | 610 nM |
